Laboratory results reported in patent US20240050583A1, “PROTEIN-DRUG CONJUGATE AND SITE-SPECIFIC CONJUGATING METHOD” (HARBOUR BIOMED (SHANGHAI) CO., LTD, priority 2020, published 2024).

How the values were obtained:
[1] = Molecular weight and coupling product components (DAR) by LC-MS; conditions: coupling product without HIC purification, protein 4.1 mg/mL
Source text: In this example, liquid chromatography-mass spectrometry (LC-MS) was used to analyze the protein sample for molecular weight. Those skilled in the art can use different models of liquid chromatography (LC) and mass spectrometer (MS) to establish similar analytical methods according to the technical instructions and through experimental exploration. Only representative methods are listed in this example.
In certain specific embodiments, determination of the molecular weight of a protein sample required desaccharification on the sample to remove modifications such as saccharide chains, for example, the sample was processed with glycosidase PNGase F (NEB, #P0705L) at 37° C. for at least 4 h. For example, in all examples of the present invention, when the molecular weight of protein samples was determined, unless otherwise emphasized, the protein samples to be tested were subjected to desaccharification by the glycosidase PNGase F.
In certain specific embodiments, determination of the reduced molecular weight of a protein sample required reduction on the sample, for example, the sample was processed with […] dithiothreitol (DTT) at 37° C. for 10 min. For example, in all examples of the present invention, the samples after reduction were called reduced samples, and the samples without reduction were called non-reduced samples.
Buffer A was 0.1% formic acid FA dissolved in water, and buffer B was 0.1% formic acid FA dissolved in acetonitrile. Injection: about 1 μg; flow rate: 0.3 mL/min; and operation temperature: 80° C. When reduced samples were tested, buffer A and buffer B were mixed within 12 min to form a linear gradient: using 10-60% B for the first 8 min and 80% B for the last 4 min. When non-reduced samples were tested, buffer A and buffer B were mixed within 9 min to form a linear gradient: using 15-60% B for the first 6 min and 80% B for the last 3 min.
Buffer A was 0.1% formic acid FA dissolved in water, and buffer B was 0.1% formic acid FA dissolved in acetonitrile. Injection: about 10 μL; flow rate: 0.2-0.5 mL/min; and operation temperature: 80° C. […]

[2] = biological target: T1, CHOK1-hCD47 cells highly expressing human CD47 (Homo sapiens, UniProt Q08722); assay: FACS binding to cells highly expressing CD47; conditions: flow cytometry FACS
T1 construct: host or cells: CHOK1-hCD47 (CHO-K1)
Method: The binding ability of the antigen-binding protein to CHOK1-hCD47 cells (GenScript, M00581) highly expressing human CD47 was determined by flow cytometry FACS. Specifically, the cells were digested and resuspended in a DMEM complete medium, and the cell density was adjusted to 1×10^6 cells/mL. The cells were seeded in a 96-well V-bottom plate (Corning, #3894) at 100 µL/well, followed by the addition of test binding proteins diluted in a 3-fold gradient at a concentration that was 2 times the final concentration, each at 100 μL/well. The cells were incubated at 4° C. for 1 h away from light. Thereafter, the cells in each well were rinsed twice with 100 μL of pre-cooled PBS, and centrifuged at 500 g at 4° C. for 5 min, and then the supernatant was discarded. Thereafter, a fluorescent secondary antibody (Alexa Fluor 488-conjugated AffiniPure Goat Anti-Human IgG, Fcγ Fragment Specific, Jackson ImmunoResearch Inc., #109-545-098, diluted in a 1:500 ratio) was added at 100 μL/well, and the plate was incubated at 4° C. for 30 min away from light. The cells in each well were then rinsed twice with 100 μL of pre-cooled PBS and centrifuged at 500 g at 4° C. for 5 min, and then the supernatant was discarded. […] Fluorescence signal values were read using a BD FACS CANTOII flow cytometer, and the data were processed and analyzed using FlowJo v10 (FlowJo, LLC) software.

HEK293T-hBCMA cells = assay: Cytotoxic killing experiment (Example 9.5), HEK293T-hBCMA; conditions: 72 h, CellTiter-Glo; proteins up to 10 nM, mc-vc-PAB-MMAE up to 20 nM
Method: (§1) The HEK293T-hBCMA, NCI-H929, HEK293T and SNU-16 cells were seeded in 96-well plates (Perkin Elmer, #6005225) respectively, with the following seeded cell number: 2500 cells/50 μL/well (HEK293T-hBCMA), 5000 cells/50 μL/well (NCI-H929), 2500 cells/50 μL/well (HEK293T), and 5000 cells/50 μL/well (SNU-16). Then, the plates were incubated overnight at 37° C. with 5% CO2. Then, a test sample serially pre-diluted was added at 50 μL/well. PR004433, PR004433-ADC and PR004432-ADC were diluted at a 3-fold concentration gradient from the highest final concentration of 10 nM, and mc-vc-PAB-MMAE was diluted at a 3-fold concentration gradient from the highest final concentration of 20 nM. In addition, a well without the test sample was set as a control well. Thereafter, the plates were incubated at 37° C. with 5% CO2 for 72 h, a CellTiter-Glo cell viability detection reagent (Promega, #G7573) was added, then the plates were incubated at room temperature for at least 10 min to obtain stable luminescence signals, and the luminescence values were detected using a microplate reader. The cell viability was calculated based on the luminescence values by the following formula: […]
(§2) The data were processed and analyzed by plotting using GraphPad Prism 8 software, and binding curves of the antibodies to target cells, EC50 values and other parameters were obtained through four-parameter nonlinear fitting.

HCC1954 cells = assay: Cytotoxic killing experiment (Example 8.5), HCC1954; conditions: 72 h, CellTiter-Glo; proteins up to 30 nM, mc-vc-PAB-MMAE up to 60 nM
Method: This example was to study the cell killing activity of the anti-5T4 antibody coupling product PR004432-ADC against a human breast cancer cell strain HCC1954 (ATCC, CRL-2338) highly expressing human 5T4.
The HCC1954 cells were seeded in a 96-well plate (Perkin Elmer, #6005225) at 4000 cells/50 μL/well and incubated overnight at 37° C. with 5% CO2. Then, a test sample serially pre-diluted was added at 50 μL/well. PR004432, PR004432-ADC and PR004433-ADC were diluted at a 3-fold concentration gradient from the highest final concentration of 30 nM, and mc-vc-PAB-MMAE was diluted at a 3-fold concentration gradient from the highest final concentration of 60 nM. In addition, a well without the test sample was set as a control well. Thereafter, the plates were incubated at 37° C. with 5% CO2 for 72 h, a CellTiter-Glo cell viability detection reagent (Promega, #G7573) was added, then the plates were incubated at room temperature for at least 10 min to obtain stable luminescence signals, and the luminescence values were detected using a microplate reader. The cell viability was calculated based on the luminescence values by the following formula:
Cell viability (%)=(A/B)×100% […]
as §2

NCI-H929 cells [3] = assay: Cytotoxic killing experiment (Example 9.5), NCI-H929; conditions: 72 h, CellTiter-Glo; proteins up to 10 nM, mc-vc-PAB-MMAE up to 20 nM
Method: as §1
The data were processed and analyzed by plotting using GraphPad Prism 8 software, and binding curves of the antibodies to target cells, EC50 values and other parameters were obtained through four-parameter nonlinear fitting. […]

NCI-H929 cells [4] = assay: Cytotoxic killing experiment (Example 7.5), NCI-H929; type: cell-based, human; conditions: 72 h, CellTiter-Glo; PR001046-ADC at 0.1 μg/mL and above; PR001046 0.01-1 μg/mL; mc-vc-PAB-MMAE 0.1-10 nM
Source text: The data were processed and analyzed by plotting using a GraphPad Prism 8 software. In this example, multiple groups of different PR001046-ADC samples were used, including samples containing different percentages of DAR=2 (D2) components before or after purification.

T1 sequence (Q08722 19-323): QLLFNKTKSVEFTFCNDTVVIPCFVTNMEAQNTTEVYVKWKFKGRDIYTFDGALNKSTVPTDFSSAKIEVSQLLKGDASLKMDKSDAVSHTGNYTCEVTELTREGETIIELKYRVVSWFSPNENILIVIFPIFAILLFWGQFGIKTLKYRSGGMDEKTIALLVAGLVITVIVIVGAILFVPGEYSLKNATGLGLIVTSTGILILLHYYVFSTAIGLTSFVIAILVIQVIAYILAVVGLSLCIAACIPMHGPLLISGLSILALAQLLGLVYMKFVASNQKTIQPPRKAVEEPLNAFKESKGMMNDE

Substance	Average DAR ([1]; Experiment 1, TCEP 1.5 equivalents)	Average DAR ([1]; Experiment 2, TCEP 2.0 equivalents)	Average DAR ([1]; Experiment 3, TCEP 3.0 equivalents)	binding activity to CD47 (CHOK1-hCD47 cells) [2]	cytotoxic killing against HEK293T-hBCMA cells (HEK293T-hBCMA cells)	cytotoxic killing against HCC1954 cells (HCC1954 cells)	cytotoxic killing against NCI-H929 cells (NCI-H929 cells [3])	cell killing of BCMA-positive cells NCI-H929 (NCI-H929 cells [4])
PR006345: SIRPa-Fc fusion protein: ALX148 SIRPa variant fused with human IgG1 hinge and Fc, SEQ ID NO: 149	1.89	2.23	2.91	strong specific binding activity	–	–	–	–
mc-vc-PAB-MMAE [reference compound]	–	–	–	–	cannot produce effective killing	only has a killing effect at the highest concentration (60 nM)	cannot produce effective killing	cannot effectively kill
